Literature values in patent publication US20260091141A1, “GENE EDITING METHODS, SYSTEMS, AND COMPOSITIONS FOR TREATING SPINAL MUSCULAR ATROPHY” (The Broad Institute, Inc., priority 2023, published 2026).

Tested on: DNA
Conditions: SpCas9 mutation relative to SEQ ID NO: 209; UniProtKB Q99ZW2 entry

B1: 175-307 deletion: SpCas9 mutation relative to SEQ ID NO: 209 (protein)
chain: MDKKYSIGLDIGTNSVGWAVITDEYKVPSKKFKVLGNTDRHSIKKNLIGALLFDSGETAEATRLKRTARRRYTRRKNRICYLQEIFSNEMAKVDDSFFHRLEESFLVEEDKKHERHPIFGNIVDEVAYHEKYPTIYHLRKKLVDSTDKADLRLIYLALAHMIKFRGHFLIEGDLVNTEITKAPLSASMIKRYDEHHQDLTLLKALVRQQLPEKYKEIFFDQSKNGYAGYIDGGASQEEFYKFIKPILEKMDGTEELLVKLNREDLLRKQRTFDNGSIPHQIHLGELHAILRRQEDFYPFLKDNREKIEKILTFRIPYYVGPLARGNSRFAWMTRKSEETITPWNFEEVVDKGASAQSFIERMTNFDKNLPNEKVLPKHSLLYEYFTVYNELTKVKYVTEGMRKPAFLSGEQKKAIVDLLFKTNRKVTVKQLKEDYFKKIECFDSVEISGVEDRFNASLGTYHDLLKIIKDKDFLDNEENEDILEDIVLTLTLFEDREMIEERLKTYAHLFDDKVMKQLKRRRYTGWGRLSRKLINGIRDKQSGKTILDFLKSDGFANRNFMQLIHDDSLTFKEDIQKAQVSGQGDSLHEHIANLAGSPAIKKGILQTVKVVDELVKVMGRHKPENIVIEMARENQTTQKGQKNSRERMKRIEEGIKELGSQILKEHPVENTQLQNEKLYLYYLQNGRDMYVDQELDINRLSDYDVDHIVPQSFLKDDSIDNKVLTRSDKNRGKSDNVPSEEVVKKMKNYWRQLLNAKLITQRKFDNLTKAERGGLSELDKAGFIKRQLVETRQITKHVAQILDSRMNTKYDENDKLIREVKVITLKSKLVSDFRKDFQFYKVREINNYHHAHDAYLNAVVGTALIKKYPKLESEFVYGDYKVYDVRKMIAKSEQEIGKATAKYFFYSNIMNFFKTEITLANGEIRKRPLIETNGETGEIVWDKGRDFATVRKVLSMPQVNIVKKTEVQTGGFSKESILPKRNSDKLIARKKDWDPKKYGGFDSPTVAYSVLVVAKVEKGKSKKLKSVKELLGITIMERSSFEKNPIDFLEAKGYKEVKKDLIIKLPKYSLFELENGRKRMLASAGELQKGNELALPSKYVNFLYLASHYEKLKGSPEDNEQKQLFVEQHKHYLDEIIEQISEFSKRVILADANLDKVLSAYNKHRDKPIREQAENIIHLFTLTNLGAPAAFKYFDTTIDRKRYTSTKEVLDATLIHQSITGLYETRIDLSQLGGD
modifications: serotype M1; Streptococcus pyogenes
  Function/Characteristic (as reported): About 50% decreased DNA cleavage
